Measurements published in patent publication US20230220042A1 (SHANGHAI JIAO TONG UNIVERSITY SCHOOL OF MEDICINE, published 2023).

Target: T1, Biotin-FcγRIIB (human FcγRIIB, Sino Biological) (human, UniProt P31994 43-217, limits assumed, biotin-labeled)
T1 construct: Used at 1 µg/ml with Streptavidin-APC for flow cytometry and sorting; also called CD32b
T1 sequence (looked up): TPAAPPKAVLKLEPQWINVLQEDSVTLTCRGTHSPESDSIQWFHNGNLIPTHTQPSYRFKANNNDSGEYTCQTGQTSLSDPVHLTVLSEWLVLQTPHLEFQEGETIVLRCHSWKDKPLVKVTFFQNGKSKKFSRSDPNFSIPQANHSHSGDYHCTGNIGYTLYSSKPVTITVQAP
Assay: NGS after FACS sort of 3T3-displayed LibraryMix for biotin-FcγRIIB binding

Row | Enrichment factor (percentage after sorting/percentage before sorting) | Increased factor (enrichment factor/wild-type enrichment factor) | Binder
1 | 46.2 | 61.8 | human IgG2 anti-mouse CD40 surface displayed antibody, P271G/P329S (antibody, name in EU numbering, m1 with these Fc mutations (Eu numbering); copies: 2 + 2) light chain (with the P2A rest): DTVLTQSPALAVSPGERVTISCRASDSVSTLMHWYQQKPGQQPKLLIYLASHLESGVPARFSGSGSGTDFTLTIDPVEADDTATYYCQQSWNDPWTFGGGTKLELKRTVAAPSVFIFPPSDEQLKSGTASVVCLLNNFYPREAKVQWKVDNALQSGNSQESVTEQDSKDSTYSLSSTLTLSKADYEKHKVYACEVTHQGLSSPVTKSFNRGECGSGATNFSLLKQAGDVEENPG heavy chain: EVQLVESDGGLVQPGRSLKLPCAASGFTFSDYYMAWVRQAPTKGLEWVASISYDGSSTYYRDSVKGRFTISRDNAKSTLYLQMDSLRSEDTATYYCGRHSSYFDYWGQGVMVTVSSASTKGPSVFPLAPCSRSTSESTAALGCLVKDYFPEPVTVSWNSGALTSGVHTFPAVLQSSGLYSLSSVVTVPSSNFGTQTYTCNVDHKPSNTKVDKTVERKCCVECPPCPAPPVAGPSVFLFPPKPKDTLMISRTPEVTCVVVDVSHEDGEVQFNWYVDGVEVHNAKTKPREEQFNSTFRVVSVLTVVHQDWLNGKEYKCKVSNKGLSAPIEKTISKTKGQPREPQVYTLPPSREEMTKNQVSLTCLVKGFYPSDIAVEWESNGQPENNYKTTPPMLDSDGSFFLYSKLTVDKSRWQQGNVFSCSVMHEALHNHYTQKSLSLSPGKLEPPPSTVSNMATVAVLVVLGAAIVTGAVVAFVMKMRRRNTGGKGGDYALAPGSQTSDLSLPDCKVMVHDPHSLA
2 | 2.45 | 3.27 | human IgG2 anti-mouse CD40 surface displayed antibody, P271A/S298R (antibody, name in EU numbering, m1 with these Fc mutations (Eu numbering); copies: 2 + 2) light chain (with the P2A rest): DTVLTQSPALAVSPGERVTISCRASDSVSTLMHWYQQKPGQQPKLLIYLASHLESGVPARFSGSGSGTDFTLTIDPVEADDTATYYCQQSWNDPWTFGGGTKLELKRTVAAPSVFIFPPSDEQLKSGTASVVCLLNNFYPREAKVQWKVDNALQSGNSQESVTEQDSKDSTYSLSSTLTLSKADYEKHKVYACEVTHQGLSSPVTKSFNRGECGSGATNFSLLKQAGDVEENPG heavy chain: EVQLVESDGGLVQPGRSLKLPCAASGFTFSDYYMAWVRQAPTKGLEWVASISYDGSSTYYRDSVKGRFTISRDNAKSTLYLQMDSLRSEDTATYYCGRHSSYFDYWGQGVMVTVSSASTKGPSVFPLAPCSRSTSESTAALGCLVKDYFPEPVTVSWNSGALTSGVHTFPAVLQSSGLYSLSSVVTVPSSNFGTQTYTCNVDHKPSNTKVDKTVERKCCVECPPCPAPPVAGPSVFLFPPKPKDTLMISRTPEVTCVVVDVSHEDAEVQFNWYVDGVEVHNAKTKPREEQFNRTFRVVSVLTVVHQDWLNGKEYKCKVSNKGLPAPIEKTISKTKGQPREPQVYTLPPSREEMTKNQVSLTCLVKGFYPSDIAVEWESNGQPENNYKTTPPMLDSDGSFFLYSKLTVDKSRWQQGNVFSCSVMHEALHNHYTQKSLSLSPGKLEPPPSTVSNMATVAVLVVLGAAIVTGAVVAFVMKMRRRNTGGKGGDYALAPGSQTSDLSLPDCKVMVHDPHSLA
3 | 140 | 187 | human IgG2 anti-mouse CD40 surface displayed antibody, P271G/P331C (antibody, name in EU numbering, m1 with these Fc mutations (Eu numbering); copies: 2 + 2) light chain (with the P2A rest): DTVLTQSPALAVSPGERVTISCRASDSVSTLMHWYQQKPGQQPKLLIYLASHLESGVPARFSGSGSGTDFTLTIDPVEADDTATYYCQQSWNDPWTFGGGTKLELKRTVAAPSVFIFPPSDEQLKSGTASVVCLLNNFYPREAKVQWKVDNALQSGNSQESVTEQDSKDSTYSLSSTLTLSKADYEKHKVYACEVTHQGLSSPVTKSFNRGECGSGATNFSLLKQAGDVEENPG heavy chain: EVQLVESDGGLVQPGRSLKLPCAASGFTFSDYYMAWVRQAPTKGLEWVASISYDGSSTYYRDSVKGRFTISRDNAKSTLYLQMDSLRSEDTATYYCGRHSSYFDYWGQGVMVTVSSASTKGPSVFPLAPCSRSTSESTAALGCLVKDYFPEPVTVSWNSGALTSGVHTFPAVLQSSGLYSLSSVVTVPSSNFGTQTYTCNVDHKPSNTKVDKTVERKCCVECPPCPAPPVAGPSVFLFPPKPKDTLMISRTPEVTCVVVDVSHEDGEVQFNWYVDGVEVHNAKTKPREEQFNSTFRVVSVLTVVHQDWLNGKEYKCKVSNKGLPACIEKTISKTKGQPREPQVYTLPPSREEMTKNQVSLTCLVKGFYPSDIAVEWESNGQPENNYKTTPPMLDSDGSFFLYSKLTVDKSRWQQGNVFSCSVMHEALHNHYTQKSLSLSPGKLEPPPSTVSNMATVAVLVVLGAAIVTGAVVAFVMKMRRRNTGGKGGDYALAPGSQTSDLSLPDCKVMVHDPHSLA

More lines, now with the values behind:

Row | Binder | Enrichment factor (percentage after sorting/percentage before sorting) | Increased factor (enrichment factor/wild-type enrichment factor)
4 | human IgG2 anti-mouse CD40 surface displayed antibody, P271G (antibody, name in EU numbering, m1 with this Fc mutation (Eu numbering); copies: 2 + 2) light chain (with the P2A rest): DTVLTQSPALAVSPGERVTISCRASDSVSTLMHWYQQKPGQQPKLLIYLASHLESGVPARFSGSGSGTDFTLTIDPVEADDTATYYCQQSWNDPWTFGGGTKLELKRTVAAPSVFIFPPSDEQLKSGTASVVCLLNNFYPREAKVQWKVDNALQSGNSQESVTEQDSKDSTYSLSSTLTLSKADYEKHKVYACEVTHQGLSSPVTKSFNRGECGSGATNFSLLKQAGDVEENPG heavy chain: EVQLVESDGGLVQPGRSLKLPCAASGFTFSDYYMAWVRQAPTKGLEWVASISYDGSSTYYRDSVKGRFTISRDNAKSTLYLQMDSLRSEDTATYYCGRHSSYFDYWGQGVMVTVSSASTKGPSVFPLAPCSRSTSESTAALGCLVKDYFPEPVTVSWNSGALTSGVHTFPAVLQSSGLYSLSSVVTVPSSNFGTQTYTCNVDHKPSNTKVDKTVERKCCVECPPCPAPPVAGPSVFLFPPKPKDTLMISRTPEVTCVVVDVSHEDGEVQFNWYVDGVEVHNAKTKPREEQFNSTFRVVSVLTVVHQDWLNGKEYKCKVSNKGLPAPIEKTISKTKGQPREPQVYTLPPSREEMTKNQVSLTCLVKGFYPSDIAVEWESNGQPENNYKTTPPMLDSDGSFFLYSKLTVDKSRWQQGNVFSCSVMHEALHNHYTQKSLSLSPGKLEPPPSTVSNMATVAVLVVLGAAIVTGAVVAFVMKMRRRNTGGKGGDYALAPGSQTSDLSLPDCKVMVHDPHSLA | 68.9 | 92.1
5 | human IgG2 anti-mouse CD40 surface displayed antibody, L328M (antibody, name in EU numbering, m1 with this Fc mutation (Eu numbering); copies: 2 + 2) light chain (with the P2A rest): DTVLTQSPALAVSPGERVTISCRASDSVSTLMHWYQQKPGQQPKLLIYLASHLESGVPARFSGSGSGTDFTLTIDPVEADDTATYYCQQSWNDPWTFGGGTKLELKRTVAAPSVFIFPPSDEQLKSGTASVVCLLNNFYPREAKVQWKVDNALQSGNSQESVTEQDSKDSTYSLSSTLTLSKADYEKHKVYACEVTHQGLSSPVTKSFNRGECGSGATNFSLLKQAGDVEENPG heavy chain: EVQLVESDGGLVQPGRSLKLPCAASGFTFSDYYMAWVRQAPTKGLEWVASISYDGSSTYYRDSVKGRFTISRDNAKSTLYLQMDSLRSEDTATYYCGRHSSYFDYWGQGVMVTVSSASTKGPSVFPLAPCSRSTSESTAALGCLVKDYFPEPVTVSWNSGALTSGVHTFPAVLQSSGLYSLSSVVTVPSSNFGTQTYTCNVDHKPSNTKVDKTVERKCCVECPPCPAPPVAGPSVFLFPPKPKDTLMISRTPEVTCVVVDVSHEDPEVQFNWYVDGVEVHNAKTKPREEQFNSTFRVVSVLTVVHQDWLNGKEYKCKVSNKGMPAPIEKTISKTKGQPREPQVYTLPPSREEMTKNQVSLTCLVKGFYPSDIAVEWESNGQPENNYKTTPPMLDSDGSFFLYSKLTVDKSRWQQGNVFSCSVMHEALHNHYTQKSLSLSPGKLEPPPSTVSNMATVAVLVVLGAAIVTGAVVAFVMKMRRRNTGGKGGDYALAPGSQTSDLSLPDCKVMVHDPHSLA | 24.9 | 33.3
